{"source": "the nanobody polyreactivity screen of Harvey et al. (2022)", "data": [{"experiment": "yeast display, Sf9 membrane polyspecificity reagent, FACS + sequencing; frameworks hold sequencing errors", "method_in_brief": "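Galactose-induced (36–48 hours) yeast carrying a synthetic nanobody display library were exposed to 10% biotinylated, detergent-solubilized Sf9 membrane reagent at 4 °C for 1 hour. FACS followed streptavidin microbead enrichment, using low and high (top ~1%) gates for expression (anti-HA) and reagent binding (streptavidin). Colony PCR, MiSeq 2 × 250 sequencing and CDR-length filtering followed. Labels for polyreactivity reflect the gate of origin.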", "values": [{"sequence": "QVQLVESGGGLVQAGGRLRLSCAASGSTLGRYAMGWYRQAPGKERELVASITWSDDSTYYADYVKGRFTISRDNAKNTVYLQMNSLKPEDTAVYYCAAAGNLYTYRFYYWGQGTQVTVSS", "polyreactivity (PSR sort gate)": "low polyreactivity"}, {"sequence": "QVQLVESGGGLVQAGGSLRLSCAASGFIFSSYAMGWYRQAPGKEREFVAVISTGGGSTYYADSVKGRFTISRDNAKITVYLQMNSLKPEDTAVYYCAAKLYDSGGRYWYDYWGQGTQVTVSS", "polyreactivity (PSR sort gate)": "high polyreactivity"}, {"sequence": "QVQLVESGGGLVQAGGSLRLSCAAYGSIFAYNAMGWYRQAPGKEREFVAVITRSDDSTYADSVTGRFTISRDNAKNTVYLQMNSLKPVDTAVYYCAAQPFVIDGGYRGDYWGQGTQVTVSS", "polyreactivity (PSR sort gate)": "low polyreactivity"}, {"sequence": "QVQLVESGGGLVQAGGSLRLSCAASGFTLSAYAMGWYRQAPGKERELVAGISYTGGRTYYADSVKGRFTISRDNAKNTVYLQMNSLKPEDTAVYYCNKAWSGYYKYGYWGQGTQVNVSS", "polyreactivity (PSR sort gate)": "low polyreactivity"}, {"sequence": "QVQLVESGGGLVQAGGSLRLSCAASGSILYRNAMGWYRQAPGKERELVAAITYSGARTYYADSVKGRFTISRDNAKNSVYLQMNSLKPEDTAVYYCAATAAGYWYSAYDYWGQGTQVTVSS", "polyreactivity (PSR sort gate)": "low polyreactivity"}, {"sequence": "QVQLVESGGGLVQAGGSLRLSCAASGFIFRDYAMGWYRQAPGKEREFVAAITSRGGSTYYADSVKGRFTISRDNAKNTVYLQMNSLKPEDTAVYYCNRYWWAYGEYDYWGQGTQVTVSS", "polyreactivity (PSR sort gate)": "high polyreactivity"}, {"sequence": "QVQLVESGGGLVQAGGSLRLSCAASGRIYSRYAMGWYRQAPGKERELVAAISASGGSTYYADSVKGRFTISRDNAKNTVYLQMNSLKPEDTAVYYCNAYQTSTPLFPGYGYWGQGTQVTVSS", "polyreactivity (PSR sort gate)": "low polyreactivity"}, {"sequence": "QVQLVESGGGLVQAGGSLRLSCAASGLTLAYAMGWYRQPPGKEREFVAAISSSGGSTYYADSVKGRFTISRDNAKNTVYLQMNSLKPEDTAVYYCAARTNPGRYYYRFSGGSWGQGTQVTVSS", "polyreactivity (PSR sort gate)": "high polyreactivity"}, {"sequence": "QDQLVESGGGLVQAGGSLRLSCAPSGRTFRYNAMGWYIQAPVKERELVAAINWNCGSTYYADSVKGRFTISRDNAKNTVYLQMNSLKPEDTAVYYCNADFYHRYDWGQGTQVTVSS", "polyreactivity (PSR sort gate)": "high polyreactivity"}, {"sequence": "QVQLVESGGGLVQAGGSLRLSCAASGSIFIGYAMGWNRQAPGKERELVAGISSNGGTTYYADSVKGRFTISRDNAKNTVYLQMNSLKPEDTAVYYCATQYYARGYLYDYWGHGTQVTVSS", "polyreactivity (PSR sort gate)": "low polyreactivity"}, {"sequence": "QVQLVESGGGLVQAGGSLRLSCAASGSIFTHYAMGWYRQAPGKERELVAAISRRGGSTYYADSVKGRFTISRDNAKNTVYLQMNSLKPEDTAVYYCAVRLYLEMDYWGQGTQVTVSS", "polyreactivity (PSR sort gate)": "high polyreactivity"}, {"sequence": "QVQLGESGGGIVQAGGSLRLSCAASGFIIRYNAMGWYRQAPGKERQFVAAISWGGGRTYYADSVKGRFTISRDNAKNTVYLQMNSLKPEDTAVYFCAAVSPHNRYGYKYDYWGQGTQVTVSS", "polyreactivity (PSR sort gate)": "high polyreactivity"}, {"sequence": "QVQLVESGGGLVQAGGSLRLSCAASGITFYFNAMGWYRQAPGKERELVAAITFSGSSTYYADSVKGRFTISRDKAKNTVYLQMNSLKPEDTAVYYCAAYFTRYDFRWHTYYYWGEGTQVTVSS", "polyreactivity (PSR sort gate)": "low polyreactivity"}, {"sequence": "QVQLVESGGGLVQAGGSLRLSCAASGRIFRYYAMGWYRQAPGKERELVATISRSGGSTFYADSVKGRFTISRDNAKNTVYLQMKSLKPEDTAVYYCAADYYSYVVGRIYYWGQGTQVTVSS", "polyreactivity (PSR sort gate)": "high polyreactivity"}, {"sequence": "QVHLVESGGGLVLAGGSLRLSFAASGSTFDSYAMRCYRQQPGKQREFVAVINSGGSTNYADSVNGRFTISRDYSKNTVYLQMNSLKPEDTAVYYCAAEERYRWHYGGWGYWYDYWGQGTQVTVSS", "polyreactivity (PSR sort gate)": "low polyreactivity"}, {"sequence": "QVQLVESGGGLVQAGGSLRLSCAASGSTFGAYAMGWYRQAPGKERELVAAISSSDGSTYYADSVKGRFTISRDTAKNTVYLQMNSLKPEDTAVYYCAAEYYSAVYIDEYWYDYWGQGTQVTVSS", "polyreactivity (PSR sort gate)": "high polyreactivity"}, {"sequence": "QGQLVESGGGLVQAGGSLRLICAASGFIFQANALGWYRQAPGQERELVAAITSSVGRTYYADSVKGRFTISRDNAKNTVYLQMNSLKPEYTEVYYCNAGGHLEMNYWGQGTQVTVSS", "polyreactivity (PSR sort gate)": "low polyreactivity"}, {"sequence": "QVQLVESGGGLVQAGGSLRLSSAASGGTFWIYAMGWYRQAPGKERELVSGITTSGATTYYADSVKGRFTISRDNAKNTVYLQMNRLKPEDTAVYYCAADEYYRYEYWGQGTQVTESS", "polyreactivity (PSR sort gate)": "low polyreactivity"}, {"sequence": "QVQLVESGGGLVQAGGSLRLSCAASGSIFVPYAMGWYRQAPGKERELVAAITRSSGSTYYADSVKGRFTISRDNAKNTVYVQMNSLKPQDSAVYYCAADFLLEFVYWGQGTQLTVSS", "polyreactivity (PSR sort gate)": "low polyreactivity"}, {"sequence": "QVQLVESGGGLVQAGGSLRLSCAASRRTFKSSAMGWYRPEPGKERELVAAISRSGGITYYADSVKGRFTISRDNAKNTVYLQMNSLKPEDTAVYYCAAVGYQYRHRRFYYWGQGTQVTVSS", "polyreactivity (PSR sort gate)": "high polyreactivity"}, {"sequence": "QVQLVESGGGLVQAGGSLRLSCAASGRIFDVYAMGWYRQAHGKERELVARISDGGGSTYYADSVKGRFTISRDNAKNTVYLQMNSLKPEDTAVYYCASGGDLRLDRRFAFVSRGDYWGQGTQVTVSS", "polyreactivity (PSR sort gate)": "low polyreactivity"}, {"sequence": "QVQLVESGGGLVQAGGSLRLSCDASGRTFKYYAMGWYRQAPGKERELVAVITSGGSTYYADSVKGRFTISRDNAKNTVYLQMNSLKPEDTAVYYCAKSSHAREYYYWGQGTQVTVSS", "polyreactivity (PSR sort gate)": "low polyreactivity"}, {"sequence": "QVQLVESGGGLVQAGGSLRLSCAASGFIFWSNARGWYRQAPGQDRELVAAINSSGGRTDYADSVKGRFTNSRDNAKNTDYLHMNSLKPEDTAVYYCAARLHSPPYRYDYWGQGTQVTVSS", "polyreactivity (PSR sort gate)": "high polyreactivity"}, {"sequence": "QVQLVESGGGLVQAGGSLRLSCAASGSIFSGNAMGGYRQAPGKERELVAAISRTGTRTFYADSEKGRFTISRDNAKNTVYLQMNSLKPEDTAVYYCAADNPDGDGYDYWGQGTQVTVSS", "polyreactivity (PSR sort gate)": "high polyreactivity"}, {"sequence": "QGQLEESGGGLVQAGGSLRLSCAASGSIFGENAMGWYRQAPGKDRELVAAISSAGSTKYADSVKGRFTISRDNAKNSVYFQMNSLKPEDTAVYYCAAGYYRTSYPYSYYYWGQGTQVTVSS", "polyreactivity (PSR sort gate)": "low polyreactivity"}, {"sequence": "QVQLVESGGGLVQAGGSLRLSCAASGFTFSYYAMGWYRQATGKETELVAGIDYSGGSTYYADSVKGRFTISRDNAKNTVYLQMNCLKPEDTAVYYCNAVYARIYYYSHGYDYWGQGTQVTVSS", "polyreactivity (PSR sort gate)": "high polyreactivity"}, {"sequence": "QVQLGESGGGLVQAGGSLRLICAASGSTFYYNAMGWSRQAPGKEWELVAAITYSGGDTYYADSVKGRFTMSRDNAKNTVYLQMNSLKPEDTAVYYCAAEYYWYNVYTGHLWYDYWGQGTQVTVSS", "polyreactivity (PSR sort gate)": "high polyreactivity"}, {"sequence": "QVQLVESGGGLDQAGGSLRLSCAASGGIFQKYAMGWYRQAPGQERELVAAISYSTTRTYYADSVKGRFTISRDNAKKTVYLQMNSLKPEDTAVYYCAARGYFWSSYKYDYWGQGTQVTVSS", "polyreactivity (PSR sort gate)": "high polyreactivity"}, {"sequence": "QVQLVESGGGLVQAGGSLRLSCAASGSIFGFNAMGWYRQAPGKERELVAAINNGGSTNYADSVKGRFTISRDNAKNTVYLQMNSLKPEDTAVYYCSARLNYIRRGYWGQGTQVTVSS", "polyreactivity (PSR sort gate)": "high polyreactivity"}, {"sequence": "QVQLVESGGGLVQAGGSLRLSCAASGSISTNYAMGWSRQAPGKERELVAAISSSGGSTYYADSVKGRFTISRDNAKNTVYLQMNSLKPEDTAVYYCRYKFGYWGQGTQVTVSS", "polyreactivity (PSR sort gate)": "high polyreactivity"}, {"sequence": "QVQLVESGGGLVQAGGSLRLSCAASGSTFVPYTMGWYRQAPGKERELVAAISSGDSTYYADSVKGRFTISRDNAKNTVYLQMNSLKPEDTAVYYCAADYQWFWVWYGYWGQGTQVTVSS", "polyreactivity (PSR sort gate)": "high polyreactivity"}, {"sequence": "QVQLVESGGGLVQAGGSLRLSCAASGITFGSNAMGWYRQAPGKERELVAAINSGGTTTYADSVKGRFTISRDNAKNTVYLQMNSLKPEDTAVYYCAVSGGASYQFVGSPDTEHDYWGQGTQVTVSS", "polyreactivity (PSR sort gate)": "low polyreactivity"}, {"sequence": "QVQLVESGGGLVQAGGSLRLSCAASGRIFVHYAMGWYRQAPGKERELVAAISRSGGSTYYADSVKGRFTISRDTAKNTVYLQMNSLKPEDTAVYYCNTYPLSQFGPYWSGYDYWGQGTQVTVSS", "polyreactivity (PSR sort gate)": "high polyreactivity"}, {"sequence": "QVQLVESGGGLVQAGGSLRLSCAASGFTFEGYAMGWYRQAPGKERDLVAAISSNGGRTYYADSVKGRFTISRDNAKNPVYLQMNSLKPEDTAVYYCNADGYGDYSFLKYRFEYDYWGQGTQVTVSS", "polyreactivity (PSR sort gate)": "low polyreactivity"}, {"sequence": "QVQLVESGGGLVQAGGSLRLSCAASRRIFLWYAMGWYRQAPGKERELVASITRSGVTTYYADSVKGRFTISRDKAKNTVYLQMNSLKPEDTAVYYCNKDFRGDAIKLDVNYWGQGTQVTVSS", "polyreactivity (PSR sort gate)": "low polyreactivity"}, {"sequence": "QVQLVESGGGLVQAGGSLRLSCAASGRTISRNTMGWYRQAPGKERELVAGITYGGDRTYYADSVKGRFTISRDNAKNTVYLQMNSLKPEDTAVYYCAAPWYWKGLRDYWGQGTQVNVSS", "polyreactivity (PSR sort gate)": "low polyreactivity"}, {"sequence": "QVQLVESGGGLVQAGGSLRLSCAASGSTFSVYAMGWYRQAPGKERELVADNTRGGSTYADSVKGRFTISRDNAKNTVYLQMNSLKPEDTAVYYCAREEVTPYPLYWSTREYDYWGQGTQVTVSS", "polyreactivity (PSR sort gate)": "low polyreactivity"}, {"sequence": "QVQLVESGGGLVQAGGSLRLSCAASGSTFSWNTMGWYRQAPGNERELVAAINSGGSTYYADSVKGRFTISRDNAKNTVYLQMNSLIPEDTAVYYCASRTKYYGRFDYWGQGTQVTVSS", "polyreactivity (PSR sort gate)": "low polyreactivity"}, {"sequence": "QVQLVESGGGLVQAGGSLRLSCAASVFTFRGNAMGWYRQAPGKERELVAAITSSDDSTYYADSVKGRFTISRDNAKNTVYLQMNSLKPEDTAVYYCAAVANGYWTYEYWGQGTQVTVSS", "polyreactivity (PSR sort gate)": "low polyreactivity"}, {"sequence": "QVQHVESGGGLLQAGGSLRLSCAASGITFWPYAMGWYRQAPGKERELVAAIRASVGRTYYADSVKGRFTISREYAKNTVYLQMNSLIPVDTAVYYCNAYGRYGKFRVEYDYWGQGTQVTVSS", "polyreactivity (PSR sort gate)": "low polyreactivity"}, {"sequence": "QVQLVESGGGLVQAGGSLRLSCAASGFIVDYYAMGWYREAPGKERELVAAIDDSAGSTYYADSVKGRFTISRDNAKNTVYLQMNSLKPEDTAVYYCAADIYVEYDYWGQGTQVTVSS", "polyreactivity (PSR sort gate)": "low polyreactivity"}, {"sequence": "QVQLVESGGGLVQAGGSLRLSCAASGYIIARNAMGWYRQAPGKERELVAAIRSSGGSTYYADSVKGRFTISRDNAKNTVYLQMNSLKPEDTAVYYCAARILKRPKLYDYWGQGTQVTVSS", "polyreactivity (PSR sort gate)": "high polyreactivity"}, {"sequence": "QVQLVESGGGLVQAGGSLRVSCAASGRTFGPYAMGWYRQAPGKERELVAAINSGDRTYYADSVKGRFTISRDNAKNTVYLQMNSLKQEDTAVYYCNARSRRPDDYWGQGTQVTVSS", "polyreactivity (PSR sort gate)": "low polyreactivity"}]}]}
